Results: PMC9318220

Target: conSOSL.UFO.664 trimer with a C-terminal 8x His-tag (SUFO.664-His) (HIV-1 (consensus S))
Assay: SEC + native gel or EMSA; SEC on HiPrep 26/60 Sephacryl S-300 HR after lectin affinity; eluted fractions analysed by Native-PAGE with silver stain and Western blot

conSOSL.UFO.664 trimer with a C-terminal 8x His-tag (SUFO.664-His)
stoichiometry N: 3
